The nature of this data set: soluble fraction after stress (log2 fold change); higher = more stays soluble; pooled small domains, quantitative proteomics. The following applies: stress: 50 degC. The essentials:
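Each library was heated to 50°C as a stress step. The libraries, made up of small protein domains, were pooled and analysed at high throughput by quantitative proteomics. The reported value is the base-two logarithm of the fold change in each protein's soluble amount after stress, taken as a measure of aggregation propensity. The higher the value, the more protein stays in solution.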

Data on 28 sequences can be found in the domain aggregation screens of Martell et al. (2025).

As for “HMANWRVGQTINALVSDRMPSGGLLLTVGRQSFVTTRDIPVQPGARIMLEVQQVEPKLVLRLVSA”, the “soluble fraction (log2)” value is -1.17.

For “HMYDAEAINKFFDIENWDFGETFYFQELSAYIMNQLSPKLVTILIVPRQTTQAFGSLFEIKSEPDEIFAS”, the “soluble fraction (log2)” value is -0.107.

Consider “HMRKIKDVLRLKLHAGLSHERVAASLNISKGVVAKYTSLAAAAGLDWPTVERLSEAALERRLV”, for which the “soluble fraction (log2)” value is -0.135.

For “HMYQNRLFYTLKTGETVADLSKSQDINLSTIWSLNKHLYSSESEMMKAAPGQQIILPLKKLP”, the “soluble fraction (log2)” value is -0.105.

“HMSKNTFIGNIDDKELYVGSGRYGPFMLYDGKFTNITRYLSDESKELTDITIDDYSKIVNNARPK”: the “soluble fraction (log2)” value is -0.101.

“HMNKDWQDEVALQRYTMITPLLSEDLDNAKRIAMREKIAQDNLTTARSLYRYEKAYRENGFQGLRPTD”: the “soluble fraction (log2)” value was -0.146.

On to “HMQPHLSADEEHLLKILGSDTMHIDALVKRSTLETSNALAALAFLEMKGLVKNIGNMHYIRTYR”, for which the “soluble fraction (log2)” value is -0.139.

As for “HMKEFIPPVLDDVLKFFSGSLLPDWENQGRLFFSHYNSQGWRKGTGVQVTDWDSLANKWILDEKIKRDARS”, the “soluble fraction (log2)” value was -0.263.

As for “HMGKTEETLQMEKLVEALRRSGRMKYEDAYRIVYAAFPDAKDFEGMLSGAIRAGFIELQMGNDGAFLRAL”, the “soluble fraction (log2)” value is -0.172.

In the case of “HMNPNFIEVSHGRLRVNVPLSAYEGTTYHIKPEEAEKLKRTLASRYPWLTPNALKVFIEEAEQAMRERIQ”, the “soluble fraction (log2)” value was -0.29.

With “HMTKYEGLSLDLIIDGVVITHNLKLAKLDMNWLLDRLKENGWDNPKDIFYAYIDTAGNFRFQPKLKASRTR”, the “soluble fraction (log2)” value was 0.202.

On to “HMKIEEVIEKLKTDSIISRKEYEDIVRQINPNLSDRTIFWQLAKLQDMGVLQKIGQNSFHVRN”, for which the “soluble fraction (log2)” value is -0.26.

As to “HMDTLHGRILEEFSRKIVDGTWPPGFSLPKETELADQYGVSRMTMNKVLTRLASDGFVIRRKRSGTVVAQP”, the “soluble fraction (log2)” value was -1.21.

On to “HMNGQITPSRAKEIALGHAGVSEGSANFKKIKLDNKNGRPAYEIEFIANNSRYEFEINASNGSIIKFNK”, for which the “soluble fraction (log2)” value turned out to be 0.345.

For “HMSNNILEISSNKKNMKIQENKNLVESYYSKTENLYSFKLVFKNKRDLDQFLKEVYEDDSTINYKTSS”, the “soluble fraction (log2)” value was -0.412.

“HMDDPLSQLTPREREVLELMASGASNQGIADALVITVRAVEKYVSSIFGKLGLPSTGSESRRVLAVLTFLR”: the “soluble fraction (log2)” value was -0.635.

For the sequence “HMSDNYYSILGIETDATTDMIKRAYRRLSLELHPDRTKDNPILTEKYKKVNEAYGVLNDNDRKHIYDLQNI”, the “soluble fraction (log2)” value is -0.216.

For “HMDASSTGFLGKHVQIVGLVSQPHLNGRRGVASRFDSNRRRYLVRLDEIDGHAEVVAFRPDNLVLSNLL”, the “soluble fraction (log2)” value is -0.573.

On to “HMRIQLNFSDQLLDDVMSEALKHIDRKSQEHHIEKQMDDEFMLVYIDARLIIQVIVNIINNAIKY”, for which the “soluble fraction (log2)” value is -0.00268.

As to “HMGTDVFIMTGGTRKRGATWSYYFDLGKIDGKRQKKEKGGFKTKKEAETALAKAINEYNNAGA”, the “soluble fraction (log2)” value is -0.0903.

“HMEKNKERIAFLKKRLEMYYEAEEKILQGQSYTIGSRTLTRTSLANVQSKIKELESEISALETRGN”: the “soluble fraction (log2)” value is -0.57.

Regarding “HMGSAIAHAIASLPDRYRELLLLKYDTGYSEKEIAQLLGMTEANVKKTIQRAKAKLQTLLDEMEA”, the “soluble fraction (log2)” value was -0.81.

In the case of “HMYSYSGSVSNTHDVPVSVVLKDAEGVAIASWDLQAKQSLNISAKDIATSSGTIEITGDGVSETKTVTFTK”, the “soluble fraction (log2)” value turned out to be 0.391.

In the case of “HMHGSSVEIPNIYGLPASEAVQLLDKADLRYEVIDSVYTTEVPKGAVYDLSPKAGSRVKAGRIIFLTLNA”, the “soluble fraction (log2)” value is -0.756.

“HMQRGRTFSIVLNWKGRLLSTQMFFPQFTRPTKEQVTFEINKVYPGAMVYYYNPIEKDPSQPLV”: the “soluble fraction (log2)” value was -1.07.

As for “HMPVEQVWHIAEAGKTKGPFSRASMGRMSADGALTRDTLVWTAGQDGWKKAADVTALATLFT”, the “soluble fraction (log2)” value was -0.0223.

Turning to “HMVNINEVEVSRDLAHAKVFVTFVGDRTDEINTQALKVLNAAQGFLRSRIASNNHMRTTPRIHF”, the “soluble fraction (log2)” value is -0.663.

For “HMGLAALLQSGPVAGTVLSHQPGGKVVIAFQGQAYPLNLKGRTLQPGQSVLARMAGEQISLEVI”, the “soluble fraction (log2)” value is -0.289.
